Test results from paper PMC9304679, “HDX-guided EPR spectroscopy to interrogate membrane protein dynamics” (STAR Protocols, 2022).

Molecular target: the molecule itself
Test: SEC

B1: M tuberculosis MscL ion channel, wild type (natural protein)
chain: MLKGFKEFLARGNIVDLAVAVVIGTAFTALVTKFTDSIITPLINRIGVNAQSDVGILRIGIGGGQTIDLNVLLSAAINFFLIAFAVYFLVVLPYNTLRKKGEVEQPGDTQVVLLTEIRDLLAQTNGDSPGRHGGRGTPSPTDGPRASTESQ
notes: also called TbMscL; WT TbMscL
stoichiometry N: 5
